For assay [1], the target named is T1, hSIRPαV1(P74A) (human, UniProt P78324 31-504).
T1 construct: also called P74A variant of hSIRPαV1
Kind of assay: CELISA, CHO-K1 transfectants.

Assay [2] deals with T2, human SIRPα variant 1 (human, UniProt P78324 31-504).
T2 construct: full length ORF on transfected CHO-K1 or HEK293 cells; entry includes the signal peptide; also called hSIRPαV1; SIRPαV1
Kind of assay: CELISA, CHO-K1 transfectants, domain exchange study. The source says: (§1) Based on the fold of SIRPα, the extracellular region can be subdivided into three separate domains: the Ig-like (immunoglobulin-like) V-type (IgV), Ig-like C1-type (IgC1), and Ig-like C2-type (IgC2) domain. The IgV domain is also known as the ligand-binding N-terminal domain of SIRPα (which binds to CD47). The human SIRPαV1/β1 mutants were designed on the basis of the full length hSIRPαV1 sequence (SEQ ID NO: 33) and each individual Ig-like domain was substituted for the equivalent domain of human SIRPβ1 (SEQ ID NO: 37). The cDNAs encoding the constructs, hSIRPα-VβC1αC2α (SEQ ID NO: 55), hSIRPα-VαC1βC2α (SEQ ID NO: 57), and hSIRPα-VaC1αC2β (SEQ ID NO: 59) were synthesized (GeneArt) and subcloned into the pCI-neo vector. Binding of hSIRPα.50A to the exchange mutants was tested using CELISA. To this end, CHO-K1 cells were transiently transfected, using Lipofectamine 2000, with the pCI-neo vectors encoding hSIRPαV1, hSIRPαV2, hSIRPβ1, hSIRPα-VβC1αC2α, hSIRPα-VαC1βC2α, and hSIRPα-VαC1αC2β, respectively. The transfected cells were cultured at 37° C., 5% CO₂ and 95% humidity in medium (DMEM-F12 (Gibco) with 5% New Born Calf serum (Biowest) and Pen/Strep (Gibco)) until confluent. Subsequently, cells were trypsinized and seeded in 96-well flat-bottom tissue culture plates and cultured at 37° C., 5% CO₂ and 95% humidity in culture medium until confluent. Then, culture medium was removed and cells were incubated for 1 hour at 37° C., 5% CO₂ and 95% humidity with hSIRPα.50A and anti-hSIRPα clone SE5A5 antibodies. Next, cells were washed with PBS-T and incubated for 1 hour at 37° C., 5% CO₂ and 95% humidity with goat-anti-mouse IgG-HRP conjugate (Southern Biotech). After that, cells were washed three times with PBS-T and anti-hSIRPα immunoreactivity was visualized with TMB Stabilized Chromogen (Invitrogen). Reactions were stopped with 0.5 M H₂SO₄ and absorbances were read at 450 and 610 nm.

Assay [3] addresses T3, human SIRPα variant 2 (human, UniProt P78324 31-504).
T3 construct: full length ORF on transfected CHO-K1 cells; also called hSIRPαV2; SIRPαV2
The description is as above.
Source text: as §1

Assay [4] has as its target T4, hSIRPα-VαC1βC2α (human, UniProt P78324 31-504).
T4 construct: domain exchange mutant
T4 chain: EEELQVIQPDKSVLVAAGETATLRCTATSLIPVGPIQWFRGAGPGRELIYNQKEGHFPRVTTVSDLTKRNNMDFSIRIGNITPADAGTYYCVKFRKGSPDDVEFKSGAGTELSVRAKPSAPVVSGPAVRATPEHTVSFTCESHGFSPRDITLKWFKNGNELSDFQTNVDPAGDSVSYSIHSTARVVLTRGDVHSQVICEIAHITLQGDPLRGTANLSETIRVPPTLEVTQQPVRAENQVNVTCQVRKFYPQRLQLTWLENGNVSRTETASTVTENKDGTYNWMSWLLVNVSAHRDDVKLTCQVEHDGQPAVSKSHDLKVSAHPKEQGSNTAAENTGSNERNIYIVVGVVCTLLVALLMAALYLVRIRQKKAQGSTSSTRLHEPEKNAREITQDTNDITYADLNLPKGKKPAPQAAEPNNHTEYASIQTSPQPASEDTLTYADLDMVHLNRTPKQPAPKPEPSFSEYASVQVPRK
The assay is described as above.
Source text: as §1

For assay [5], the target named is T5, hSIRPα-VαC1αC2β (human, UniProt P78324 31-504).
T5 construct: domain exchange mutant
T5 chain: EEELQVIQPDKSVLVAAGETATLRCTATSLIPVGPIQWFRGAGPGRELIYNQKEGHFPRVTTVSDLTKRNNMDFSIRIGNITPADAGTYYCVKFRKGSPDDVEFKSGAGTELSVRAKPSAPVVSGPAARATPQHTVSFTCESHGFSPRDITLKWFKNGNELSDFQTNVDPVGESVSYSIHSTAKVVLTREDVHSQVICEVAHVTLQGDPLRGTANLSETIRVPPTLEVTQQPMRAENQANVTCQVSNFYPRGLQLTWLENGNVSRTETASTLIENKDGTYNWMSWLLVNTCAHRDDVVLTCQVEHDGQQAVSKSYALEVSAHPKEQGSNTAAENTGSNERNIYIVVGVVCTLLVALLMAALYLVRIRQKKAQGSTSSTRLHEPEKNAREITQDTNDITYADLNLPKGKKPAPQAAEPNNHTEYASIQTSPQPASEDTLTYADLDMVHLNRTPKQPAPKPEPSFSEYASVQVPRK
The assay is described as above.
Source text: as §1

T1 sequence (P78324 31-504 P74A limits assumed): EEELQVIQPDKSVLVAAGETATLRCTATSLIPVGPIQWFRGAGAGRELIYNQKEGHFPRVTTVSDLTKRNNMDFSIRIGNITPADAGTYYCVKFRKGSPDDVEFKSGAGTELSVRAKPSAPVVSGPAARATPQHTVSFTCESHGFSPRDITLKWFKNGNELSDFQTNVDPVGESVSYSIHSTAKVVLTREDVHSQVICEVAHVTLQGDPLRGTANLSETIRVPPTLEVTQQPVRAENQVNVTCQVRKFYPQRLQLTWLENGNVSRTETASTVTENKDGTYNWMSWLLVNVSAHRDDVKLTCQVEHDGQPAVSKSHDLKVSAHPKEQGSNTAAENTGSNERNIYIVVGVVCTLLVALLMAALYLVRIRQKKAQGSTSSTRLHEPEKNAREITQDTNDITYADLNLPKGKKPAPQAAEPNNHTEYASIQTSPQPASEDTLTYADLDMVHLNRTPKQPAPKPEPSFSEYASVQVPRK

B1: KWAR23 (antibody, V domains shown)
VH: EVQLQQSGAELVKPGASVKLSCTASGFNIKDYYIHWVQQRTEQGLEWIGRIDPEDGETKYAPKFQDKATITADTSSNTAYLHLSSLTSEDTAVYYCARWGAYWGQGTLVTVSS
VL: QIVLTQSPAIMSASPGEKVTLTCSASSSVSSSYLYWYQQKPGSSPKLWIYSTSNLASGVPARFSGSGSGTSYSLTISSMEAEDAASYFCHQWSSYPRTFGAGTKLELK
One may read the EC50 as the midpoint of the concentration-response curve. A high value points to weaker potency. As for B1, the EC50 in assay [1] was determined as 0.077 nM. This counts as picomolar.

B2: hSIRPα.50A (antibody, V domains shown)
VH: QVQLQQSGPELVKPGASVRISCKASGFTFTNYYIHWVKQRPGQGLEWIGWIYPGNVNTKYNEKFKAKATLTADKSSTTAYMQLSSLASEDSAVYFCARPTIIATDFDVWGAGTTVTVSS
VL: DIVMTQSHKFMSTSVGDRVNITCKASQGVGTAVGWYQQKPGQSPRLLIYWASTRHTGVPDRFTGSGSGTDFSLAISNVQSEDLADYFCQQYSTYPFTFGGGTNLEIK
notes: light chain constant domain not tied; also called mouse hSIRPα.50A; hSIRPα.50A.mIgG1
Regarding B2, the EC50 in assay [2] is 0.321 nM; in assay [3], 0.215 nM; in assay [4] it was 0.345 nM; in assay [5], 0.408 nM.

(Values after patent publication US20180312587A1 (ADURO BIOTECH HOLDINGS EUROPE B V, published 2018).)
